Test: yeast display, Sf9 membrane polyspecificity reagent, FACS + sequencing; frameworks hold sequencing errors
Method in brief: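 Galactose induction of a Saccharomyces cerevisiae BJ5465 synthetic nanobody display library ran 36–48 hours. The cells were then stained for 1 hour at 4 °C with 10% biotinylated, detergent-solubilized Sf9 membrane reagent, pulled down on streptavidin microbeads and FACS-sorted into low and high (top ~1%) gates on expression and reagent-binding fluorescence. Labels for polyreactivity follow the gate of origin.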

Sequence | polyreactivity (PSR sort gate)
QVQLVESGGGLVKAGGSLGLSCAASGSIFGVNAMGWYRQAPGKERELVAAISKRGGTTYYADSVKGRFTISRDNAKNTVYVQRHSLKPEDTAVYYCNAPYLWNYYGGRYDYWGQGTQVTVSS | high polyreactivity
QVQLVESGGGLVQAGGSLRLSCAASGSIIGVNAMGWYRQAPGKERELVAAMSSTGGSTYYADSVKGRFSISRDNAKNTVFLQMNRLKPEDTAVYYCHTDYSKSIGDGYAGFDYWGQGTQVTVSS | low polyreactivity
QVQLVESGGGLVQAGGSLRLSCAASGFIFTRYAMGWYRQAPGKERELVARISGGGGSTYYADSVKGRFTISRDNAKNTVYLQMNSLKPEDTAVYYCNARWYPYISRYGIEARYDYWGQGTQVTVSS | high polyreactivity
QVQLVESGGGLVQAGGSLRLSCAASGRTFPSYAMGWYRQAPGKERELVAAITRGGSTNYADSVKGRFTISRDNAKNTVYLQMNSLKPEDTAVYYWAAARWRWQLARDDYWGQGTQVTVSS | high polyreactivity
QVQLVESGGGLVQAGGSLRLSCAASGSTIPSYAMGWYRAAPGKERELVASITYSDGPTRYADSEKGRFTISRDNAKNTVFLQMNSLKPEDTAVYYCNAVYYREGMDYWGQGNQVTVSS | low polyreactivity
QVQLVESGGGLVQAGGSLRLSCAASGFTLALNAMGWYRQAPGKERELVAVINSGGSTNYADSVKGRFTISRDNAKNTVYLQMNSLKPEDTAVYYYWGQGTQVTESS | low polyreactivity
QVQLVESGGGLVQAGGSLRLSCAASGRIFQPNAMGWYRQAPGKERELVAAISSSGGRTYYADSVKGRFTISRDNAKNTVYLQMNSLKPEDSAVYYCNAGGYRYRSYDYWGQGTQVTVSS | high polyreactivity
QVQLVESGGGLVQAGGSLRLSCAASGRTFKQYAMGCYRQAPGKERELVAVITRTGGSTYYADSVKGRFTISRDNAKNTVYLLMNSLKPEDTAVYYCARYPPRGYIAWRYYDYDYWGQGTQVTVSS | high polyreactivity
QVQLLESGGGLVQAGGTLRLSCAASGSIIGRNAMGWYRQAPGKERELVAAITWRTGSTFYADSVKGRFTISRDNAKNTVYLQMNSLKPEDTAVYYCNAAGPAYSYYHWLWGDYNSWRQGTQVTVSS | low polyreactivity
QVQLVESGGGLVQAGGSLRLICAASGFIFDWNTMGWYRQAPGKEREMVAAISWSGAGTYYADSVKGRFTISRDNAKNTVYLQMNSLKPEDTAVYYCNAVRANGQASQEGEYWGQGTQVTVSS | high polyreactivity
QVQLVESGGGLVQAGGSLSLICAASGRNFYTYAMGWYRQAPGKERELVAAISWSGGSTYYADSVKGRFTISRDNAKNTVYLQMNSLNPEDTAVYYCNARFRFGWPGYDYWGQGTQVTVSS | high polyreactivity
QDQLVESGGGLVQAGGSLRLSCAASGLIFVRYAMGWYRQAPGKERELVATITWSGGTTYADSVKGRFTISRDNAKKTVYLQMNSLNPEDTAVYYCAVASGPELDYWGQGTQVTVSS | low polyreactivity
QVQLVESGGGLVQAGGSLRLSCAASGRIFTYNTMGWYRQAPGKERELVAAISGSGGITYYADSVKGRFTISRDNAKNTVYLQMNSLKPEDTAVYYCNTVPLYVSRYPYDYWGQGTQVTVSS | low polyreactivity
QVQLVESGGGLVQAGGSLSLSCAAYGGIFPENAMGWYRLAPGKERELVAAMSRSGSSTYYADSVKGRFTISRDNAKNTVFLQMNSLKPEVTAVSYCAARGVKWGQGSQVTVSS | high polyreactivity
QVQLVESGGGLVQAGGSLRLSCASSGNTFERYAMGWYRQAPGKERELVAAITSSGGSTYYADSVKGRFTISRDNAKNTVYLQMNSLKPEDTAVYYCAASWRPRFYWGQGTQVTVSS | high polyreactivity
QVQLVESGGGLVQAGGSLRLSCASSGSTFPYNAMGWYRQAPGKERELVAAITSSGRTNYADSVKGRFTISRDNAKNTVYLQMNSLKPEDTAVYYCAAGRWYAHRVDYWGQGTQVTVSS | low polyreactivity
QVQLVESGGGLVQAGGSLRLSCAASGIIFPYYAMGWYRQAPGKERELVAGISWSGGSTYYADSVKGRFTISRDNAKNTVYLQMNSLKPEDTAVYYCAADYPATPDDDYWGQGTQVTVSS | high polyreactivity
QVQLVESGGGLVQAGGSLRLSCDASGRTFGRNAMGWYRQAPGERELGAVISRGGSTYYADSVKGRFTISRDNAKNTVYLQRNSLKPEDTAVYYCNADTVYTRTAPYDYWGQGTQVTVSS | low polyreactivity
QVQLVESGGGLVQAGRSLRLSCAASGRTFPPYDMGWYRQAPGKERELVAAITSDGSTSYADSVKGRFTISRDNAKNTVYLQMNRLKPEDTAVYYCNAEYGYSFGYGYYWWFDYWGQGTQVTVSA | high polyreactivity
QVQLVESGGGLVQAGVSLRLRCASSGSIFRRNVMGWYRQAPGKERELVAAISWSGGRTYYADSVKGRFTISRDNAKNTVYLQMNSLKPEDTAVYYCAAENGYYAYDYWGQGTQVTVSS | high polyreactivity
QVQLVESGGGLVQAGGSLRLSCAASGFTFHSYAMGWYIQAPGKERELVAAISARGGSTYYADSVKGRFTISRDNAKNTVYLQMNSLKPEDTAVYYCAAYSYQVRFYYWGHGTQVTVSS | high polyreactivity
QVQLVESGGGLVQAGGSLRLSCAASGITLKLYVMGWYRQAPGKERELVAAISRRGGSTYYADSVKGRFTISRDNAKNTVYLQMNSLKPEDTAVYYCAKDGTQYERQDPAYGYWGQGTQVTVSS | high polyreactivity

Sequence | polyreactivity (PSR sort gate)
QVQLVESGGGLVQAGGSLRISCAASGRTFGRYTMGWYRQAPGKVRELVASISNTARTNYADSVKGRFTISRDNAKNTVYLQMNSLKPEDTAVYYCASGFVRYRGTRDYWGQGTQVTVSS | low polyreactivity
QVQLVESGGGLVQAGGSLRLSCAASGSIFPWYVMGWYRQAPRKERELVASITYRGASTYYADSVKGRFTISRDNAKNTVYLQMNSLKPEDTAVYYCADFRSYYSERHDYGYWGQGTQVTVSS | low polyreactivity
QVQLVESGGGLVQAGGSLRLSCAASGYIFTPYAMGWYRQAPGKERELVAAITGSGSSTYYADSVKGRFTISRDNAKNTVYLQMNSLKPEDTAGYYCAADSYGFYGYYYYELEYWGQGTQVTVSS | low polyreactivity
QVQLVESGGGLVQAGGSLRLSCAASGSTFYNNAMGWYRQAPGKERELVAAITASGGRTYYADSVKGRFTISRDNAKNTVYLQMNSLKPEDTAVYYCAADGHAGYPIDEYYYWGQGTQVTVSS | high polyreactivity
QVQLVESGGGLVQAGGSLRLSCADSGRIIPSYDMGWYRQAPGKERELVAVIRSSVDGTYYADSVKGRFTISRDNAKNTVYLQMNSLKPEDTAVYDCAADSLTPKSASDYWGQGTQVTVSS | low polyreactivity
QVQLVESGGGVVQAGGSLRLSCAAYGRTFYVYTLGWYRPAPGKERELVAANTSGGSTNYADCVMGRFTISRDYAKNTVYLQMNSLKPEDTAVYYCAAKRYNRLRSYRYSDREDYWGQGTQVTVSS | high polyreactivity
QVQLVESGGGLVQAGGSLRLSCAASGSIFYLNAMGWYRMAPGKERELVATISNGGSTNYADSVKGRFTISRDNAKNTVYLQMNSLKPEDTAVYYCAAASGGTVVGEGDYWGQGTQVTVSS | low polyreactivity
QVQLVESGGGLVQAGGSLRLSCAASGLTSDENAMGWYRQAPGKERELVAVISNSGDSTYYADSVKGRFTISRDTAKNTVYLQLNSLKPEDTAVYNCAADGLSKFDYWGQGTQVTVSS | low polyreactivity
QVQLVESGGGLVQAGGSLRLSCAASGFISSHYAMGWYRPAPGKEWEVVATISSGGSTYADSVKGRFTISRDNAKNTVYLQMNSLKPEDTAVYYCAKRYYKSLNRDEFDSWGQGTQVTVSS | high polyreactivity
QVQLVESGGGLVQAGGSLRLSCPASGSTFGPYAMGWYRQAPGKERELVAAISSTGGSTYYADSVKGRFTISRDNAKNTVYLQMNSLKPEDTAVYYCAAYSTYARGYWGQGTQVTVSS | high polyreactivity
QVQLVESGGGLVQAGGSLRLSCAASGSTFGYYTMGWYRQAPGKERELVAAISWSGGRTYYADSVKGRFTISRDNAKNTVYLQMNSLKPEDTAVYYCAAPRYGGWRSYQKYDYWGQGTQVTVSS | high polyreactivity
QVQLVESGGGLVQAGGSLRLSCAASGFTFVVYAMGWYRQAPGKERELVAAISARGGRTYYADSVKGRFTISRDNAKNTVYLQMNSLKPEDTAVYYCAATNQRQTRYDYWGQGTQVTVSS | high polyreactivity
QVQLVESGGGLVQAGGSLRLSCAASGIIFYSYAMGWYRQAPGKERELVAAISRRGTSTFYADSVKGRFTISRDNAKNTVYLQMNSLKPEDTAVSYCNARYKYYRGSGMDSWGQGTQVTVSS | high polyreactivity
QVQLQESGGGLVQAGGSLRLSCAASGTISQEDWMGWYRQAPGKEREFVAAIGLGSNTNYADSLKGRFTISRDNAKNTVYLQMNSLKPEDTAVYYCAVSVWQYSDNVYRGQGTQVTVSS | low polyreactivity
QVQLVESGGGLVQAGGSLRLICAASGRTFAPYAMGWYRQAPGKEMQLVAAISSGGGNTYYADSVKGRFTISRDNAKNTVYLQMNSLKPEDTAVYYCNAAQRRGGLGYWGQGTQVTVSS | high polyreactivity
QVQLVESGGGLVQAGGSLRLSCAASGSIFHYYAMGWYRPAPGKERELVAAISWSGGRTYYADSVKGRFTISRDNAKNTVYLQMNSLKPEDTAVYYCAAARGESYEFYSWGQGTQVTVSS | high polyreactivity
QVQLVESGGCLVQAGGSLRLSCAASGGTFRGYAMGWYRQAPGKETELVAASSTSGSRTSYADSVKGRFTISRDNAKNTVYLQMNSLKPEDNAVYYCNADPIHGVYSRFRLGGYWGQGTQVTVSS | high polyreactivity
QVQLVESGGGLVQAGGSLRFSCAATGSISYGYAMGWYKQAHGKERELVAAISRRGGTTYFADSVKGRFTISRDNAKNSLYLQINSLKAEDTAVYYCNALLPDLAQYDYWGQGTQVTVSS | high polyreactivity
QVQLVESGGGLVQAGGSLRLSCAASGFIFSFDNAMGWYRQAPGKERELVAAISSGTTTHYADSVKGRFTISRDNAKNTVYLQMNSLKREDTAVYYCAAGTATDVASIGATKDYDYWGQGTQGTVSS | low polyreactivity
QVQLVESGGGLVQAGGSLRLSCAASGNIFGWYAMGWYRQAPGKERELVAAISSGGRTNYADSVKGRFTISRDNAKNTVYLQMNSLKPEETAVYYCAVGLHKRPPPPRFRQFNYWGQGTQVTVSS | low polyreactivity
QVQLVESGGGLVQAGGSLRLSCAASGSTFQRNAMGWYRQAPGKERELVAVITRRGASTYYADSVKGRFTISRDYEKNTVYLQMKSLKAEDTAVYYCNKVPYGRDHHLLFDYWGQGTQVTVSS | high polyreactivity

Reference: the nanobody polyreactivity screen of Harvey et al. (2022)
